Measured values: US20240148828A1 (published 2024)

Target: T1, CD19 expressed on cells (Daudi, Raji, K562-CD19) (human, UniProt P15391 20-556)
T1 chain: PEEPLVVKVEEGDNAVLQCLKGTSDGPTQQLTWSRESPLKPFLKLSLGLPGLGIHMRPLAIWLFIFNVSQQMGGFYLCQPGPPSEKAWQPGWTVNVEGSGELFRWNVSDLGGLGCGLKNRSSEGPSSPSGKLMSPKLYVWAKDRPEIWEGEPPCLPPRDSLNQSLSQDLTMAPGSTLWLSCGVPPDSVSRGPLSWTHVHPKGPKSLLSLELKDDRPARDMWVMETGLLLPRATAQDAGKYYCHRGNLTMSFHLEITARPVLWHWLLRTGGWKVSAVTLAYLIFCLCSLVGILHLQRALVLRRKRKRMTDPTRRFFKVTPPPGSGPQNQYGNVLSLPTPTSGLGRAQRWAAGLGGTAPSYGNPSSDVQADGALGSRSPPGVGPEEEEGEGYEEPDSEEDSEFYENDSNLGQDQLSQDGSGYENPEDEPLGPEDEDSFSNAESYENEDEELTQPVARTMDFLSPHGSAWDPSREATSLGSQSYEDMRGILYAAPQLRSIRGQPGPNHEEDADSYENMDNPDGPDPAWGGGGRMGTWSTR
Assay: flow cytometry cell binding

EC50: 5 nM
B1: BTN2A1/3A1-Fc-CD19scFv heterodimeric protein (Fc fusion)
chain 1: QFIVVGPTDPILATVGENTTLRCHLSPEKNAEDMEVRWFRSQFSPAVFVYKGGRERTEEQMEEYRGRTTFVSKDISRGSVALVIHNITAQENGTYRCYFQEGRSYDEAILHLVVAGLGSKPLISMRGHEDGGIRLECISRGWYPKPLTVWRDPYGGVAPALKEVSMPDADGLFMVTTAVIIRDKSVRNMSCSINNTLLGQKKESVIFIPESFMPSVSPCAGSGSRKGGKRGSKYGPPCPPCPAPEFLGGPSVFLFPPKPKDQLMISRTPEVTCVVVDVSQEDPEVQFNWYVDGVEVHNAKTKPREEQFNSTYRVVSVLTVLHQDWLSGKEYKCKVSSKGLPSSIEKTISNATGQPREPQVYTLPPSQEEMTKNQVSLTCLVKGFYPSDIAVEWESNGQPENNYKTTPPVLDSDGSFFLYSRLTVDKSRWQEGNVFSCSVLHEALHNHYTQKSLSLSLGKDEGGEDGSDIQMTQTTSSLSASLGDRVTISCRASQDISKYLNWYQQKPDGTVKLLIYHTSRLHSGVPSRFSGSGSGTDYSLTISNLEQEDIATYFCQQGNTLPYTFGGGTKLEITGGGSGGGSGGGSEVKLQESGPGLVAPSQSLSVTCTVSGVSLPDYGVSWIRQPPRKGLEWLGVIWGSETTYYNSALKSRLTIIKDNSKSQVFLKMNSLQTDDTAIYYCAKHYYYGGSYAMDYWGQGTSVTVSS
chain 2: not shown
